We go through two proteins from article PMC3956926, “Acetate Kinase Isozymes Confer Robustness in Acetate Metabolism” (PLoS ONE, 2014).

What all share (test): purified protein
Substrate in series [1]: CC(=O)O
Particulars: OAc to Ac-P, varying ATP, 4.2 mM MgCl2, 100 mM HEPES, 400 mM potassium glutamate, pH 7.5, apparent Km.

Substrate in series [2]: CC(=O)OP(=O)(O)O
The series is classed as biochemical, Lactococcus cremoris. The note with it: Ac-P to OAc, varying ADP, 5 mM MgSO4, 100 mM HEPES, 400 mM potassium glutamate, pH 7.5.

Substrate in series [3]: Nc1ncnc2c1ncn2[C@@H]1O[C@H](COP(=O)(O)OP(=O)(O)O)[C@@H](O)[C@H]1O
The series is classed as biochemical, Lactococcus cremoris. Particulars: Ac-P to OAc, varying Ac-P, 5 mM MgSO4, 100 mM HEPES, 400 mM potassium glutamate, pH 7.5.

Substrate in series [4]: Nc1ncnc2c1ncn2[C@@H]1O[C@H](COP(=O)(O)OP(=O)(O)OP(=O)(O)O)[C@@H](O)[C@H]1O
The series is classed as biochemical, Lactococcus cremoris. Particulars: OAc to Ac-P, varying acetate, 4.2 mM MgCl2, 100 mM HEPES, 400 mM potassium glutamate, pH 7.5.

B1: AckA1 (Lactococcus cremoris subsp. cremoris MG1363) (protein)
chain: MTKTLAVNAGSSSMKWQMYEMPEEKVLAKGLIERIGLKDSIVTVKFGEEKEERVFDIPNHTEAVEVLLEDLKRLKIVEEFTEITGVGHRVVAGGEIFQKSTVVTPEVLQQVKDLSALAPLHNPANAAGIEAFLNLLPDATSVVVFDTAFHTTMPEKAFRYPLPKKYYTDYAVRKYGAHGTSHMYVSQEAAKLLGKPIEETKIITAHIGNGASITAVKGGESVDTSMGFTPLAGVMMGTRTGEMDPSVFPYLIENDSELKDAQDVVDMMNKESGLYGVSGISSDMRDIIAAKDTDADAKLAFEMYVDRIQKFIGQYLAVLNGADALVFTAGIGENSVPVREAILSGLTWFGIEVDPEKNVFGVEGEISKPSSRLKVFVIPTDEELVIARDVEALKK
notes: His-tagged (vector pQE30, N-terminal tag kept), from E. coli M15 pREP4 groESL, Ni-NTA; 100 kDa by gel filtration, monomer 43 kDa, homodimer; residue V331 in ATP site
Turning to B1, the Km is on record as 22.07 (1.05) mM in the series “purified protein [1]”, 0.35 (0.02) mM in the series “purified protein [2]”, 0.94 (0.09) mM in “purified protein [3]” and 0.086 (0.0078) mM in the series “purified protein [4]”. Also, the figures for the kcat in the series “purified protein [1]”, in the series “purified protein [3]” and in “purified protein [4]” were 3234 s⁻¹, 1033 s⁻¹ and 3234 s⁻¹, respectively.

B2: AckA2 (Lactococcus cremoris subsp. cremoris MG1363) (protein)
chain: MEKTLAVNAGSSSLKWQLYEMPEETVIAKGIFERIGLSGSISTTKFNNEEHVRKQEIVDHRQAVLLLMDELIHFQLIHEFREITGIGHRVVAGGEFFKDSTIITPEVLAEIKNLSTLAPLHNPANVLGIEAFQRLLPDALAVAVFDTAFHSTLPEKAYRYPIPTKYYEDYSIRKYGAHGTSHMYVAQEAAKVLGKPLEELKIITAHIGNGASITAIEGGKSVDTSMGFTPLAGVMMGTRAGEMDASVIPYMLESDPSLRNAQDVIDILNKESGVLGVSELSSDMRDLSEAVAKGNPKAILAYEMYVDRLKKFIAQYFGVLNGADALIFTAGVGENDTAVRTDVVNGLSWFGMEIDESKNVRGAFGIISKPESKVKVLVVPTNEELVIARDVEAAK
notes: His-tagged (vector pQE30, N-terminal tag kept), from E. coli M15 pREP4 groESL, Ni-NTA; 84 kDa by gel filtration, monomer 43 kDa, homodimer; residue I331 in ATP site
Turning to B2, the Km in “purified protein [1]” was 1.87 (0.29) mM; in the series “purified protein [2]”, 0.086 (0.02) mM; in “purified protein [3]”, 1.15 (0.12) mM; in “purified protein [4]”, 0.21 (0.12) mM. In addition, the kcat is 394 s⁻¹ in the series “purified protein [1]”, 282 s⁻¹ in “purified protein [3]” and 394 s⁻¹ in the series “purified protein [4]”.

One may read the kcat as the maximal rate divided by the concentration of active sites.
